This passage reports activity results from US20250092426, “CAS ENDONUCLEASES AND RELATED METHODS” (Flagship Pioneering Innovations VII, LLC, published 2025).

For the data set, the target named is T1, CasEnd-18 (synthetic construct).
T1 chain: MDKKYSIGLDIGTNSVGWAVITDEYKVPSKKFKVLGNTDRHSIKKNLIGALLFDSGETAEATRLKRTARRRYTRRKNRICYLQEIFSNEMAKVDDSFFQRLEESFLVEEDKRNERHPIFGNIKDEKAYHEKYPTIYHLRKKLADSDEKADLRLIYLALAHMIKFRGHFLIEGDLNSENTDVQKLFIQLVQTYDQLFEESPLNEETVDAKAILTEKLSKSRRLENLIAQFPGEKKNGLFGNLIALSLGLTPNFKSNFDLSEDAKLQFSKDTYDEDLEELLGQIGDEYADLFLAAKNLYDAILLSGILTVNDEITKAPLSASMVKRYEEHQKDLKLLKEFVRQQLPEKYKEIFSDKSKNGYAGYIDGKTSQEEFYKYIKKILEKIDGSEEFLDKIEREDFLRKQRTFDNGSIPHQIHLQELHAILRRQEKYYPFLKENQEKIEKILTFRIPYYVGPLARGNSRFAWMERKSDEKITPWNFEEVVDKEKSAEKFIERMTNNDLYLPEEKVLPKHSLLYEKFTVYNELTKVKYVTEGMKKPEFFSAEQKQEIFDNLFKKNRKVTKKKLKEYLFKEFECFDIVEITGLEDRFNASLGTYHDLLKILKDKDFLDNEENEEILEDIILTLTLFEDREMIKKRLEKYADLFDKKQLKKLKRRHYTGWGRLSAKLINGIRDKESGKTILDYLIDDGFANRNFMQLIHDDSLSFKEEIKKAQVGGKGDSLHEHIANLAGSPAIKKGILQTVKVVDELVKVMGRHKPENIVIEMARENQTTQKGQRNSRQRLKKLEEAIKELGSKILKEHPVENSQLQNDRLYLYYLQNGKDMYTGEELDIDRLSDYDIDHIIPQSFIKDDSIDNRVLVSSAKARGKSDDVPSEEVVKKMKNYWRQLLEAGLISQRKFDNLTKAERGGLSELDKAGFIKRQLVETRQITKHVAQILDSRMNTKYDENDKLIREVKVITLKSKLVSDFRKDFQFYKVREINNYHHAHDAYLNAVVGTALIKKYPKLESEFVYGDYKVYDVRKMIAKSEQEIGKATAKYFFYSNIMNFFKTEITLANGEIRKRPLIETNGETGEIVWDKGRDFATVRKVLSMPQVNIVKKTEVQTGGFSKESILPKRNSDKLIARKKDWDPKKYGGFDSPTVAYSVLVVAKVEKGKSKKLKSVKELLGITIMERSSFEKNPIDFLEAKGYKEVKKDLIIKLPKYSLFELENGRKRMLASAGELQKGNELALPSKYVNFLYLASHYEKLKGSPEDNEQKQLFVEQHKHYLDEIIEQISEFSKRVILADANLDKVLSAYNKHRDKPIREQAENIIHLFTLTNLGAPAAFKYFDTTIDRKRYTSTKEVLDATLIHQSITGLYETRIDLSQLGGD
The experiment in a line: cell_activity; +++; HEK293T; PAM not stated. Summed up:
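Editing activity was scored as the fraction of GFP+ cells on day 4 by flow cytometry. BFP-expressing HEK293T cells (250,000) received by nucleofection 200 ng plasmid for the RT-Cas fusion protein and 200 ng template RNA plasmid designed to convert BFP to GFP.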

B1: BFP-to-GFP template RNA ; BFP reporter protospacer (ssRNA ; dsDNA)
RNA: GCCGAAGCACUGCACGCCGUGUUUUAGAGCUAGAAAUAGCAAGUUAAAAUAAGGCUAGUCCGUUAUCAACUUGAAAAAGUGGCACCGAGUCGGUGCACCCUGACGUACGGCGUGCAGUGCUU
DNA 1: GCCGAAGCACTGCACGCCGT
DNA 2: ACGGCGTGCAGTGCTTCGGC
Regarding B1, the activity is ≥ 100 % of reference.
